# Measurements as given in paper PMC8231982.
# B1: wild-type cyanovirin-N (WT CV–N), P81180 1-101 (natural protein)
# chain: LGKFSQTCYNSAIQGSVLTSTCERTNGGYNTSSIDLNSVIENVDGSLKWQPSNFIETCRNTQLAGSSELAAECKTRAQQFVSTKINLDDHIANIDGTLKYE
# What was measured:
# [1] = target: T1, HIV-1 gp120 monomer, strain HxBc2 (HIV-1, strain HxBc2), P04578; experiment: SPR; conditions: remark: other sources report otherwise
# [2] = target: T1, HIV-1 gp120 monomer, strain HxBc2 …; experiment: SPR; conditions: remark: other sources report otherwise; remark: listed apart in the source
binder,measurement,setting,value
B1,Kd,[1],260 nM
same,Kd,[2],250 nM
